Molecular target: T1, SARS-CoV-2 S_(fm2P) (SARS-CoV-2, original (reference) …, 682RRAR685 → 682GSAG685 | 986KV987 → 986PP987)
T1 construct: also called ectodomain of the SARS-CoV-2 S protein; SARS-CoV-2 S protein
Experiment: cryo-EM structure
Details: both partners purified

Binder	stoichiometry N
RBD-chAb-45 (antibody, V domains shown, also called S-chAb-45 (in complex with S); source: Expi-293 cells, co-transfected, purified (protein G column)) VH: EVQLQQSGPELVKPGASVKISCKTSGYTFTEYTIYWVKQSLGKSLEWIGGNNPNNDDTTYKQFFKGKATLTVDKSSSTAYMELRSLTSEDSAVYYCARDGYPYYYALDFWGQGTSVTVSS VL: DIVMTQSQKFMSTSVGDRVSVTCKSSQNVGTNVAWYQQKPGQSPKALIYSASYRYSGVPDHFTGSGSGTDFTLTISNVQSADLAEYFCQQYNNYPWTFGGGTKLEIK	3 chAb (Fab) per S trimer
RBD-chAb-25 (antibody, V domains shown, also called S-chAb-25 (in complex with S); source: Expi-293 cells, co-transfected, purified (protein G column)) VH: EVQLEESGGGLVKPGGSLKLSCAASGFTFSSYTMSWVRQSPEKRLEWVAEISSGGTYTNYPDTATGRFTISRDNAKNTLYLEMSSLRSEDTAMYYCANFGNYEEIAYWGQGTLVTVSA VL: QIVLTQSPAIMSVSLGERVTMTCTASSSVSSSYLHWYQQKPGSSPKLWIYSTSNLASGVPARFSGSGSGTSYSLTISSMEAEDAATYYCHQYHRSPYTFGGGTKLEIK	3 chAb (Fab) per S trimer
